Measurements taken from paper PMC12483203.

Target: Hu-1 G614 S-6P homotrimer (SARS-CoV-2 Wuhan-Hu-1 D614G spike ectodomain, hexaproline-stabilised) (SARS-CoV-2) (UniProt P0DTC2)
Experiment: SEC

## Hu-1 G614 S-6P homotrimer (SARS-CoV-2 Wuhan-Hu-1 D614G spike ectodomain, hexaproline-stabilised) (from UniProt P0DTC2 14-1211) (natural protein)
  stoichiometry N: 3
